The Human Domainome abundance scans (Beltran et al. 2025)

B1: Serine/threonine-protein kinase LATS1, residues 98 to 141; numbered along this chain, O95835 (parent)
chain: TSEVNPQMLQDLQAAGFDEDMVIQALQKTNNRSIEAAIEFISKM

Variants of: B1
Experiment: abundance fitness (aPCA) (normalised: wild type 0, dead -1); higher = more abundant; growth selection in yeast, the domain comes from the species named
Settings: Homo sapiens

Abundance fitness: each site, then its substitutions
Q13: W -0.851 | D -0.538 | R 0.059 | E -0.18 | L 0.104 | V 0.067 | S -0.127 | Y -0.53 | F -0.536 | M 0.046 | I 0.071 | H -0.42 | A -0.131 | T -0.002 | C 0.037 | K 0.084
L12: T -0.636 | V -0.562 | W -0.951 | H -0.573 | M -0.119 | F -0.737 | R -0.715 | S -0.616 | K -0.658 | G -0.57 | D -0.469 | E -0.477 | Y -1.06 | P -0.644 | I -0.364 | A -0.607 | Q -0.594
A14: F -0.455 | Q -0.132 | G -0.19 | M -0.151 | E 0.039 | L -0.188 | C -0.325 | R -0.095 | P -0.898 | W -0.706 | K 0.007 | T -0.206 | D 0.04 | S -0.047 | V -0.308 | Y -0.339
L9: A 0.004 | T -0.166 | Q -0.124 | V -0.045 | S -0.125 | F -0.082 | K 0.136 | H -0.35 | W -0.649 | R -0.104 | E -0.273 | P -0.53 | N -0.445 | G -0.481 | Y -0.421
F17: S -0.495 | C -0.488 | W -0.198 | I -0.399 | A -0.449 | K -0.648 | E -0.272 | N -0.116 | V -0.501 | R -0.648 | M -0.336 | P -0.601 | L -0.342 | G -0.465 | T -0.609 | Q -0.366
Q10: K 0.013 | H 0.019 | G -0.231 | W -0.295 | A 0.015 | N -0.105 | T -0.195 | S -0.07 | C -0.225 | D -0.12 | M -0.128 | L -0.173 | E -0.077 | V -0.253 | F -0.247 | P -1 | I -0.267 | R 0.012
V22: C 0.11 | A 0.18
Q7: G -0.157 | R -0.129 | E -0.036 | S -0.149 | K 0.009 | L -0.296 | N -0.227 | C -0.354 | F -0.549 | P -0.796 | M -0.178 | T -0.079 | I -0.223 | D -0.111 | V -0.147 | Y -0.345
D18: L -0.617 | R -0.22 | Q -0.077 | S -0.169 | P -0.113 | K -0.117 | W -0.853 | N -0.21 | V -0.597 | T -0.204 | F -0.564 | G -0.169 | H -0.159 | Y -0.837 | A -0.032 | M -0.59 | C -0.187 | E 0.036
E19: N -0.233 | S -0.035 | Q -0.012 | L -0.26 | M -0.228 | W -0.75 | G -0.103 | A -0.097 | V -0.17 | K 0.08 | F -0.31 | P -0.104 | C -0.218 | D -0.154 | R 0.078 | T 0.046
M8: L -0.203 | W -0.208 | R -0.597 | A -0.525 | V -0.508 | F -0.162 | D -0.419 | H -0.244 | Q -0.541 | K -0.485 | S -0.543 | C -0.778 | I -0.431 | G -0.583 | P -0.717 | Y -0.151 | T -0.447
P6: Q 0.081 | N 0.249 | W -0.201 | K 0.101 | M 0.005 | R 0.039 | L -0.13 | Y -0.119 | G -0.048 | F -0.115 | H -0.001 | A 0.037 | D 0.007 | E 0.07 | C -0.219 | S -0.052 | V -0.032
V4: G -0.388 | E -0.402 | D -0.344 | T -0.218 | H -0.262 | N -0.204 | L -0.367 | P -0.057 | C -0.277 | M -0.453 | W -0.561 | Y -0.272 | R -0.515 | S -0.444 | F -0.357 | I -0.15
S2: E -0.014 | Y -0.231 | N -0.057 | V -0.311 | W -0.174 | Q -0.035 | R -0.054 | F -0.108 | I -0.035 | G 0.029 | L -0.219 | H -0.168 | M -0.143 | K 0.021 | T 0.075
M21: N -0.148 | W -0.32 | A -0.019 | H -0.294 | G -0.363 | R -0.268 | T 0.088 | Y -0.33 | D 0.023 | S -0.038 | L 0.032 | E 0.043 | V 0.059 | P -0.491 | Q 0.077 | C -0.126 | F -0.291 | K -0.059
N5: M -0.951 | T -0.628 | F -1.21 | Y -0.964 | D -0.028 | I -0.82 | W -0.828 | P -0.637 | L -0.878 | V -0.716 | Q -0.528 | H -0.211 | E -0.442 | G -0.653 | K -0.638
G16: E -0.617 | I -1.34 | Q -0.953 | P -0.687 | R -1.1 | M -0.962 | N -0.494 | L -0.898 | D -0.5 | A -0.725 | T -0.72 | H -0.275 | S -0.88 | K -1.03 | C -0.914 | V -1.11
A15: G -0.492 | I -0.238 | K -0.046 | V -0.429 | E -0.308 | S -0.309 | F -0.3 | P -0.954 | R 0.022 | C -0.287 | Y -0.181 | W -0.442 | D -0.358 | N -0.309 | M 0.103 | L -0.003 | H -0.36 | Q 0.042
D11: Q 0.092 | E 0.091 | S -0.021 | R -0.134 | Y -0.086 | L -0.153 | G -0.479 | A -0.017 | M -0.154 | H -0.182 | F -0.045 | I -0.083 | K 0.083 | T -0.048 | P -1.08 | N -0.004
D20: C -0.208 | R -0.142 | P -0.166 | W -0.268 | G -0.081 | S -0.063 | L -0.288 | I -0.384 | V -0.261 | Q -0.07 | Y -0.535 | K 0 | M -0.168 | H -0.234 | E 0.007 | N -0.06 | T -0.059 | A -0.047
E3: S -0.332 | A -0.223 | R -0.202 | H -0.148 | W -0.116 | P -0.079 | I -0.529 | F -0.18 | K -0.042 | D -0.099 | L -0.326 | N -0.119 | Q -0.138 | C -0.855 | G -0.117 | T -0.126 | Y -0.2 | V -0.802
